Positions count from the first letter of the chain named.

Consider nine molecules from patent publication US20250042994A1 (HAINAN SIMCERE ZAIMING PHARMACEUTICAL, published 2025).

To fix the notation:
T1: human CD19 on CHO-K1-human CD19 cells (human, UniProt P15391 20-556)
T1 construct: whole, on cells; also called CHO-K1-human CD19-2C8
T1 sequence (looked up): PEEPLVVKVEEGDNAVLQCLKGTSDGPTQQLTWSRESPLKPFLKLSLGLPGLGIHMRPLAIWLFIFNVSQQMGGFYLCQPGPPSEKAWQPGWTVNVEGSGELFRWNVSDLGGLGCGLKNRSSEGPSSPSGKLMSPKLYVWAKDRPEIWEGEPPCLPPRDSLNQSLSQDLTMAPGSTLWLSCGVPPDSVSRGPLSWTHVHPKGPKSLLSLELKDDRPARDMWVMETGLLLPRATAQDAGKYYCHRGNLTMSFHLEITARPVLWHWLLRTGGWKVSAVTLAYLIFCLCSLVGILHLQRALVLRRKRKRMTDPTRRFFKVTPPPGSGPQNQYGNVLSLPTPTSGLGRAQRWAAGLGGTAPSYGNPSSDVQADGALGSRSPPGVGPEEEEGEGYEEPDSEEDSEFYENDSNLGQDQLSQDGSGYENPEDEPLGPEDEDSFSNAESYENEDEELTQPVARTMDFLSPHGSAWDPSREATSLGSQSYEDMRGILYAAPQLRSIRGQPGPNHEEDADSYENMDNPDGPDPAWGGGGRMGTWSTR

T2: human CD19 on Raji cells (human, UniProt P15391 20-556)
T2 construct: whole, on cells
T2 sequence (looked up): T1 sequence (looked up)

T3: Human CD19-his protein (human, UniProt P15391 20-291)
T3 construct: bought protein; also called recombinant human CD19-His; CD19 full-length protein; not shown: His tag
T3 sequence (looked up): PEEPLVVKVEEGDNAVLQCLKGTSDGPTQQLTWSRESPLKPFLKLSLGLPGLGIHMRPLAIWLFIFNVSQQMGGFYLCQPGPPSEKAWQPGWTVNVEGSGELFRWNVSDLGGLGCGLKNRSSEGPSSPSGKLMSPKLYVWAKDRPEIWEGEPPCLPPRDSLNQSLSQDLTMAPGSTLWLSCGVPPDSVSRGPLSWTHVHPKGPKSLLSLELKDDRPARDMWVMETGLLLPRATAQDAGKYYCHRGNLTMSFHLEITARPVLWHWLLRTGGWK

B1: F3.23.10 (antibody, human IgG1, V domains shown)
VH: EFQLQQSGPELVKPGASVKISCKASDYSFTDYNMNWVKQSNGASLEWIGIINPNFGSTSYNQKFKGKATLTVDQSSSTAFMQLNSLTSEDSAVYYCARSEYYGSSGFAYWGQGTLVTVSA
VL: DVVVTQTPLSLPVSFGDQVSISCRSSQSLVNSYGNTYLSWYLHKPGQSPQLLIYGISNRFSGVPDRFSGSGSGTDFTLKITTIKPEDLGMYYCLQGTHQPWTFGGGTKLEIK
notes: human-murine chimeric antibody, human IgG1
B2: F6.2.9 (antibody, human IgG1, V domains shown)
VH: QVQLQQSGAELVKPGASVKISCKASGYAFSSYWMNWVKQRPGKGLEWIGQIYPGDGDTNYNGKFKGKATLTADKSSSTGYMQLSSLTSEDSAVYFCARSRITSVVDWYFDVWGTGTTVTVSS
VL: QIVLSQSPAILSASPGEKVTMTCRASSSVSYMHWYQQKPGSSPKPWIYATSNLASGVPARFSGSGSGTSYSLTISRVEAEDAATYYCQQWSSNPPTFGAGTKLELK
notes: as for B1
B3: F4.15.9 (antibody, human IgG1, V domains shown)
VH: QVQLQQSGPELVKPGASVKISCKASGYAFSSSWMNWLKQRPGQGLEWIGRIYPGDGDTNYNGKFKGKATLTADESSSTAYMQLSSLTSVDSAVYFCARGITTIITIAWFASWGQGTLVTVSA
VL: B2 VL with A9T, A59P, E78G, N93D, P95W, A99G, L105I
notes: as for B1
B4: F4.145.9 (antibody, human IgG1, V domains shown)
VH: EVQLVESGGGLVKPGGSLKLSCAAAGFAFSSYDMSWVRQIPEKRLEWVAYISAGGGNTYFLDTVKGRFTISRDHAKNTLSLQMSSLKSEDTAMYFCVRHGDYYRYFYAMDYWGQGSSVTVSS
VL: DIVMTQSHKFMSTSVGDRVSITCKASQDVGTAVAWSQQKPGQSPKLLIYWASTRHTGVPDRFTGSGSGTDFTLTISNVQSEDLADYFCQQFVTYPYTFGGGTKLEIK
notes: as for B1
B5: F4.125.12 (antibody, human IgG1, V domains shown)
VH: EVKLVESGGGLVQPGGSLKLSCAASGFTFSTYTMSWVRQTPEKRLEWVAFISSGGGHINYPDTVKGRFTISRDNAKNTLYLQMSSLKSEDTAMYYCARHSYWFFDVWGAGTTVTVSS
VL: DVQITQSPSYLAASPGETITINCRASKNIDTYLAWYQEKPGKTNKLLIYSGSTLQSGIPSRFRGGGSGTDFTLTICSLEPEDFAMYYCQQHNEYPLTFGAGTKLELK
notes: as for B1
B6: F5.7.1 (antibody, human IgG1, V domains shown)
VH: QVTLKESGPGILQPSQTLSLTCSFSGFSLTTFGMGVGWIRQPSGKGLEWLTHIWWDDDKYYNPALKSRLTISKDTSKNQVFLRIANVDTADTATYYCARVITTGVPYFDYWGQGTTLTVSS
VL: ENVLTQSPAIMSASPGEKVTMTCRASSSVSSSYLYWYQQKSGASPKLWISSTSNLASGVPARFSGSGSGTSYSLTINSVEAEDAATYYCQQYSGYPWTFGGGTKLEIK
notes: as for B1
B7: F6.5.20 (antibody, human IgG1, V domains shown)
VH: QVQLQQPGAELVKPGASVKLSCKASGYTFTSYWMQWVKQRPGQGLEWIGEIDPSDSYTNYNQKFKGKASLTVDTSSSTAYMQLSSLTSEDSAVYYCARWGLLRNYYVMDYWGQGTSVTVSS
VL: EIVLTQSPTTMAASPGEKITITCSASSSISSNYLHWYQQKPGFSPKLLIYRTSNLASGVPARFSGSGSGTSYSLTIGTMEAEDVATYYCQQGSSIPRMLTFGAGTKLELK
notes: as for B1
B8: F3.23.10 (antibody, human IgG1, V domains shown)
VH: B1 VH
VL: B1 VL
notes: human-murine chimeric antibody, human IgG1 constant
B9: F5.11.2 (antibody, human IgG1, V domains shown)
VH: EVQLVESGGDLVKPGGSLKLSCAASGFTFSSYGMSWVRQTPDKRLEWVATISHGGSYTHYPDSVKGRFTISRDNAKNTLYLQMNSLKSEDTAMYYCVRLPITTVEAPYFFDYWGQGTTLTVSS
VL: DIQMTQTTSSLSASLGDRVTISCRASQDIRNYLNWYQQKPDGTVKLLIYYTSILHSGVPSRFSGSGSGTDYSLTINNLEQEDVATYFCQQGNTLYTFGGGTEVELR
notes: as for B8

In one assay the target is T1, human CD19 on CHO-K1-human CD19 cells. In words: FACS on CHO-K1-human CD19 cells. The source says:
(§1) The desired cells were scale-up cultured in a T-75 cell culture flask to the logarithmic growth phase. For the adherent cell CHO-K1, the medium was aspirated, the cells were washed 2 times with a PBS buffer, and then digested with trypsin. After the digestion was terminated, the cells were washed 2 times with a PBS buffer; and for suspension cell Raji, the supernatant of the medium was discarded by directly centrifugation, and the cell pellet was washed 2 times with PBS. After counting the cells in the previous step, the cell pellet was resuspended with [PBS+2% (w/w) BSA] blocking solution to 2×10⁶ cells/ml, and added to a 96-well FACS reaction plate at 50 μl/well, and then the sample to be tested was added at 50 μl/well, and incubated on ice for 2 h. The obtained mixture was centrifuged and washed 3 times with a PBS buffer. […] The obtained mixture was centrifuged and washed 5 times with a PBS buffer, and FACS (FACS Canto™, purchased from BD Company) was used for detection and result analysis. Data analysis was performed by software (FlowJo) to obtain the mean fluorescence intensity (MFI) of the cells. And then software (GraphPad Prism8) was used for analysis, data fitting, and EC50 value calculation. […] The same method was used to detect the binding of the chimeric antibodies to endogenous CD19-negative cells, MoLT4 cells (purchased from ATCC, CRL-1582), and CHO-K1 cells.
As for B1, the response was half-maximal at 3590 pM (EC50) and the “Maximum mean fluorescence intensity” value was determined as 50400.
As to B2, the “Maximum mean fluorescence intensity” value amounted to 10300.
B3: the EC50 – broadly, the concentration needed to bring the measured effect to its halfway point – stood at 170 pM and the “Maximum mean fluorescence intensity” value is 20500.
For the molecule B4, the EC50 turned out to be 840 pM and the “Maximum mean fluorescence intensity” value is 48500.
On to B5, for which the concentration for a half-maximal effect (EC50) is 480 pM and the “Maximum mean fluorescence intensity” value turned out to be 51800.
On to B6, for which the EC50 was determined as 1540 pM and the “Maximum mean fluorescence intensity” value stood at 56200.
B7: the EC50 was around 170 pM and the “Maximum mean fluorescence intensity” value was 48300.

The target of another assay is T2, human CD19 on Raji cells. In words: FACS on Raji cells.
Text: as §1
Take B1: a half-maximal response (EC50) required 4770 pM and the “Maximum mean fluorescence intensity” value stood at 14900.
Turning to B2, the EC50 came to 980 pM and the “Maximum mean fluorescence intensity” value turned out to be 21500.
In the case of B3, the EC50 came to 710 pM and the “Maximum mean fluorescence intensity” value was determined as 31300.
Taken in the same sequence, the figures for B4 were 780 pM and 20000.
Taken in the same sequence, the figures for B5 were 510 pM and 27100.
In the same order, the values of B6 are 1130 pM and 28700.
Take B7: the EC50 stood at 170 pM and the “Maximum mean fluorescence intensity” value is 28600.

The target of the next assay is T3, Human CD19-his protein. In words: SPR Biacore, Ab captured on Protein A, CD19-His analyte. The procedure: A sample buffer and a running buffer were HBS-EP+ (10 mM HEPES, 150 mM NaCl, 3 mM EDTA and 0.05% surfactant P20) (GE Healthcare; BR-1006-69). The flow-through cell was set to 25° C. The sample block was set to 16° C. Both were pretreated with the running buffer. In each cycle, an antibody to be detected was first captured with a Protein A chip, and then a single concentration of CD19 antigen protein was injected. The binding and dissociation processes of the antibody and the antigen protein were recorded, and finally Glycine pH 1.5 (GE Healthcare; BR-1003-54) was used to complete chip regeneration. The binding was measured by injecting different concentrations of recombinant human CD19-His proteins in a solution for 240 s with a flow rate of 30 μl/min. The concentration started from 200 nM (see the detailed results for the actual concentration in the test) and was diluted at 1:1, making a total of 5 concentrations. The dissociation phase was monitored for up to 600 s and was triggered by switching from sample solution to running buffer. The surface was regenerated by washing with a 10 mM glycine solution (pH 1.5) for 30 s at a flow rate of 30 μl/min. Bulk refractive index difference was corrected by subtracting the response obtained from the goat anti-human Fc surface. Blank injection was also subtracted (=double reference). For calculation of apparent KD and other kinetic parameters, Langmuir 1:1 model was used.
Take B8: the Kd (usually a measure of binding affinity in units of concentration) was 5240 pM; the koff – broadly, the rate constant with which the complex falls apart – was found to be 0.000186 s⁻¹; the kon – broadly, the rate constant with which the complex forms – was found to be 35400 M⁻¹ s⁻¹.
Taken in the same sequence, the figures for B9 were 1680 pM, 6.15e-05 s⁻¹ and 36600 M⁻¹ s⁻¹.

In the next assay the target is T4, monkey CD19 on HEK293T-monkey CD19 cells (monkey).
T4 construct: whole, on cells
Kind of assay: FACS on HEK293T-monkey CD19 cells. Here is the method: as §1, with “After” for “The desired cells were scale-up cultured in a T-75 cell culture flask to the logarithmic growth phase. For the adherent cell CHO-K1, the medium was aspirated, the cells were washed 2 times with a PBS buffer, and then digested with trypsin. After”
HEK293T-monkey CD19 cells were subjected to FACS detection and data analysis according to the method in example 5.2. […] The same method was used to detect binding of the chimeric antibodies to HEK293T cells.
Take B1: the “Maximum mean fluorescence intensity” value worked out at 77.
Regarding B2, the EC50 was 86000 pM and the “Maximum mean fluorescence intensity” value came out at 2130.
B3: the “Maximum mean fluorescence intensity” value turned out to be 14800.
As to B4, the “Maximum mean fluorescence intensity” value came out at 108.
For the molecule B5, the “Maximum mean fluorescence intensity” value is 4080.
As for B6, the “Maximum mean fluorescence intensity” value is 938.
With B7, the “Maximum mean fluorescence intensity” value was 531.
